Data: patent US20210139574A1

Assays:
Test in all cases: cell-based or functional assay
[1] = biological target: Tau seeds: sonicated human insoluble Tau from patients with frontotemporal dementia (FTD-PHF) (human) (UniProt P10636)
[2] = biological target: Tau seeds: sonicated human insoluble Tau from patients with progressive supranuclear palsy (PSP-PHF, fraction 8) (human) (UniProt P10636)
[3] = biological target: Tau seeds: sonicated human insoluble Tau from patients with Alzheimer's disease (AD-PHF, fraction 8) (human) (UniProt P10636)
[4] = biological target: Tau seeds: brain fraction from transgenic mice expressing human Tau P301S (human) (UniProt P10636)
[5] = biological target: Tau seeds: brain fraction from transgenic mice expressing human Tau P301L (human) (UniProt P10636)
Chain of Tau seeds: brain fraction from transgenic mice expressing human Tau P301L (human) (P10636 other isoform, or with tags, fused parts or gaps P301L P301L limits assumed): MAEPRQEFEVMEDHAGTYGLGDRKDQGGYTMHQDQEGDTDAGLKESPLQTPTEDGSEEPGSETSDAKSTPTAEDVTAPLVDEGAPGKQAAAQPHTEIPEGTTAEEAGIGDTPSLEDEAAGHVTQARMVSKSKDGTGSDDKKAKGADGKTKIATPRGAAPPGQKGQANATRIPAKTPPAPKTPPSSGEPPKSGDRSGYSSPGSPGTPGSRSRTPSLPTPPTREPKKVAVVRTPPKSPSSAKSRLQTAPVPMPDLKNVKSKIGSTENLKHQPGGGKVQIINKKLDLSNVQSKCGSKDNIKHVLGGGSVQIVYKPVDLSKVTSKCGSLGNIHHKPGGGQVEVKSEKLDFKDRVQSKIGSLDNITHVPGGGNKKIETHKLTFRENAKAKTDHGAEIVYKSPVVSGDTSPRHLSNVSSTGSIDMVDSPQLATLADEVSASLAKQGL

Chain of IPN002 of WO2014/028777A2 (antibody) (VH): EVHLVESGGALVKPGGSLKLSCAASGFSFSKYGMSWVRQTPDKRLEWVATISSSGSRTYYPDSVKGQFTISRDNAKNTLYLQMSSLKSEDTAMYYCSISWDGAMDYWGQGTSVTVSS
Chain of IPN002 of WO2014/028777A2 (antibody) (VL): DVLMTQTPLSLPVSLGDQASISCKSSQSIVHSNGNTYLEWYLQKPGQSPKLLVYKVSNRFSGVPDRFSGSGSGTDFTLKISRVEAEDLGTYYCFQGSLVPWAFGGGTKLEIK
Chain of Tau seeds: brain fraction from transgenic mice expressing human Tau P301S (human) (P10636 other isoform, or with tags, fused parts or gaps P301S P301S): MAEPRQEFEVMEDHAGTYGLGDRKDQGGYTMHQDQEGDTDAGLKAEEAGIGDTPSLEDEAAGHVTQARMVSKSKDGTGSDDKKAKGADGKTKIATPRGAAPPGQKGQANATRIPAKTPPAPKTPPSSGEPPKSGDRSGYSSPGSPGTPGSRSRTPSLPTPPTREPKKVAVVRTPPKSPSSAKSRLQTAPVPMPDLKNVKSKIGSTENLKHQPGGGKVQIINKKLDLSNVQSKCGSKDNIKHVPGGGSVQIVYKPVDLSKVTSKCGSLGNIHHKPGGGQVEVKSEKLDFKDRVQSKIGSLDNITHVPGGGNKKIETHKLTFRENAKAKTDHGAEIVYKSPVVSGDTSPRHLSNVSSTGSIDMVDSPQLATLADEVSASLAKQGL
Chain of HJ8.5 of WO 2014/008404 (antibody) (VH): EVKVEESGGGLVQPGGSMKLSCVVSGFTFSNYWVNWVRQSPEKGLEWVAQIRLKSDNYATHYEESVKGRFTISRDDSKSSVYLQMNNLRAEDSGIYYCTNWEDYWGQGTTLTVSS
Chain of HJ8.5 of WO 2014/008404 (antibody) (VL): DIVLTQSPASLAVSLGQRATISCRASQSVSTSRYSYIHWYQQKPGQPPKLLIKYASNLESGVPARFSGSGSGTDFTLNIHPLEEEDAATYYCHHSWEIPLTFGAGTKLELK
Chain of Tau seeds: sonicated human insoluble Tau from patients with Alzheimer's disease (AD-PHF, fraction 8) (human) (P10636 other isoform, or with tags, fused parts or gaps limits assumed): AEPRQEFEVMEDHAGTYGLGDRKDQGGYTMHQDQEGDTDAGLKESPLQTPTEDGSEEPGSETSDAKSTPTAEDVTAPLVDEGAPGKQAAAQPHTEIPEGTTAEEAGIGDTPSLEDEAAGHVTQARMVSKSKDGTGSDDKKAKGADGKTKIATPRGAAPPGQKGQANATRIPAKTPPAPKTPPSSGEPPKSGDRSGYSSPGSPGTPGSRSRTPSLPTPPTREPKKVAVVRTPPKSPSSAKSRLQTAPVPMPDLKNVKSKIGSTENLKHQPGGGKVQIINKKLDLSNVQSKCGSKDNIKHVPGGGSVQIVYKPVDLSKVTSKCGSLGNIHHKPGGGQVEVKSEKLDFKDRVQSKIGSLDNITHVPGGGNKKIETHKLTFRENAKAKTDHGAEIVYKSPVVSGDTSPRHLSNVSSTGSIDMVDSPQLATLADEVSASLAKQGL
Chain of Tau seeds: sonicated human insoluble Tau from patients with frontotemporal dementia (FTD-PHF) (human) (P10636 other isoform, or with tags, fused parts or gaps limits assumed): as above
Chain of Tau seeds: sonicated human insoluble Tau from patients with progressive supranuclear palsy (PSP-PHF, fraction 8) (human) (P10636 other isoform, or with tags, fused parts or gaps limits assumed): as above

Imax (maximal efficacy at 300 nM), cellular Tau aggregation assay [1]	Imax (maximal efficacy at 300 nM), cellular Tau aggregation assay [2]	Imax (maximal efficacy at 300 nM), cellular Tau aggregation assay [3]	Imax (maximal efficacy at 300 nM), cellular Tau aggregation assay [4]	IC50, cellular Tau aggregation assay [2]	IC50, cellular Tau aggregation assay [1]	IC50, cellular Tau aggregation assay [4]	IC50, cellular Tau aggregation assay [3]	IC50, cellular Tau aggregation assay [5]	Imax (maximal efficacy at 300 nM), cellular Tau aggregation assay [5]	Substance
36%	25%	19%	–	–	–	–	–	–	–	AT8 (MN1020) (antibody)
67%	79%	46%	43%	73 nM	–	–	–	–	–	HJ8.5 of WO 2014/008404 (antibody)
80%	55%	69%	56%	47 nM	1 nM	350 nM	32 nM	26 nM	69%	PT3 of WO2013/096380A2 (antibody)
50%	64%	19%	22%	207 nM	–	–	–	122 nM	73%	IPN002 of WO2014/028777A2 (antibody)
